These results are taken from paper PMC12631696, “Trp101-Mediated Cold Adaptation in Sphingomonas sp. Thioredoxin: Increased α4-Helix Rigidity with Preserved Overall Flexibility” (ACS Omega, 2025).

The series deals with O=C(O)c1cc(SSc2ccc([N+](=O)[O-])c(C(=O)O)c2)ccc1[N+](=O)[O-]. Description: purified protein. The following applies: Trx pre-reduced with 5 mM DTT, 0.4 μM, 50 mM MOPS pH 7.0, 1 mM EDTA, DTNB 10–150 μM.
Where [1] appears, read: apparent optimal temperature (40 °C).
Where [2] appears, read: apparent optimal temperature (60 °C).

In the case of “SpTrx (Sphingomonas sp. PAMC 26621; W101F)”, under setting [1], the Michaelis constant (Km) came out at 50.7 ± 0.6 µM and the kcat came to 14.6 ± 0.1 s⁻¹.

“SpTrx (Sphingomonas sp. PAMC 26621; E47A)”: under setting [1], the Km amounted to 39.0 ± 0.1 µM and the kcat turned out to be 23 ± 0.1 s⁻¹.

“SpTrx (Sphingomonas sp. PAMC 26621; E43A/E47A)”: under setting [1], the Michaelis constant (Km) came to 44.0 ± 0.1 µM and the turnover number (kcat) is 13.1 ± 0.2 s⁻¹.

Consider “SpTrx (Sphingomonas sp. PAMC 26621; E43A)”, for which, under setting [2], the Km is 38.3 ± 0.1 µM and the kcat worked out at 23.4 ± 0.1 s⁻¹.

Regarding SpTrx (Sphingomonas sp. PAMC 26621), under setting [2], the Km turned out to be 33.0 ± 0.1 µM and the catalytic constant (kcat) was 26.1 ± 0.1 s⁻¹.

For the substance “SpTrx (Sphingomonas sp. PAMC 26621; W101A)”, under setting [1], the Km amounted to 59.9 ± 0.2 µM and the kcat was found to be 0.6 ± 0.1 s⁻¹.
